Test results taken from the supplement of paper PMC11865577.

What was measured:
Experiment in all cases: pull-down binding Z-score (relative to library population); higher = stronger binding
[1] = test system: TO-3-N3 (biotin conjugate); conditions: RNA library: Library-2
In short: (§1)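 The RNA library, end-labelled with Cy5 or Cy3, was heat-folded in phosphate/NaCl/KCl buffer, and 1 μg was incubated at 25 °C for 60 min with streptavidin beads carrying 100 pmol of biotin-conjugated small molecule. Hot SDS released the bound RNA, which was then hybridised to a DNA barcode microarray for 20 h at 55.5 °C. For scoring binding, signal from beads alone was subtracted, replicate barcoded probes were averaged after discarding the highest and lowest, and each value was turned into a Z-score from the library mean and standard deviation.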

TO-N3 (biotin conjugate) = conditions: RNA library: Library-2
In short: as §1

[2] = test system: TO-3-N3-2 (biotin conjugate); conditions: RNA library: Library-2
In short: as §1

[3] = test system: TO-N3-2 (biotin conjugate); conditions: RNA library: Library-2
In short: as §1

[4] = test system: G-clamp-N3 (biotin conjugate); conditions: RNA library: Library-1 (pre-miRNA loops + repeats)
In short: as §1

Row | Sequence | pull-down binding Z-score [1] | pull-down binding Z-score (TO-N3 (biotin conjugate)) | pull-down binding Z-score [2] | pull-down binding Z-score [3] | pull-down binding Z-score [4]
1 | GAGACAACUUCCCAGUCUC [hsa-mir-6717] | -0.96 | -1.17 | -0.519 | -0.848 | -0.0467
2 | GAGACACCCGCUACCUGGUGUU [hsa-mir-4321] | -0.271 | -0.0464 | -0.213 | 0.471 | -0.619
3 | GAGACACUC [hsa-mir-6126] | -0.431 | -0.502 | -0.578 | -0.469 | -0.909
4 | GAGACGCUUUUAAAGUCUC [hsa-mir-3926-2] | -0.631 | -0.855 | -0.552 | -1.22 | 0.131
5 | GAGACUGCCCAAAGACUCUUCAGUAUC [hsa-mir-2681] | 0.782 | 0.738 | 0.272 | 0.223 | -0.411
6 | GAGACUUAGAAAUCCCUAAGUCUC [hsa-mir-3921] | -0.258 | -0.761 | -0.246 | -0.875 | 0.443
7 | GAGACUUUAAAAGCGUCUC [hsa-mir-3926-1] | -0.747 | -0.993 | -0.343 | -1.01 | 0.184
8 | GAGACUUUGUGAUUUGUCUCCAAAGCCUC [hsa-mir-6862-2_6862-1] | 0.202 | 0.0513 | -0.468 | -0.157 | -1.06
9 | GAGAGAGUGCACAGCCAGCUCAGGGAUUAAAGCUCUUUCUCUCUCUCUC [hsa-mir-7110] | -0.181 | 0.311 | 0.535 | 1.09 | -0.385
10 | GAGAGUGCUGUCUGAAUGCAAUGC [hsa-mir-500a] | 0.797 | 0.89 | 0.291 | 0.766 | 1.08
11 | GAGAGUGCUUUCUGAAUGCAAUGC [hsa-mir-501] | -0.342 | -0.14 | -0.161 | 0.716 | 1.7
12 | GAGAUGUGAUCCUGCCACAUCUC [hsa-mir-1304] | -0.09 | -0.261 | -0.00394 | -0.363 | 0.421
13 | GAGCCCUGAGGGGCUC [hsa-mir-6087] | 0.542 | 0.283 | -0.303 | -0.191 | 1.46
14 | GAGCCCUUGCACACCACCAGCCUC [hsa-mir-6845] | -0.0477 | 0.375 | 0.134 | 0.822 | -1.73
15 | GAGCCUGUCACAUCUCCAGACUC [hsa-mir-3925] | 0.0173 | -0.15 | -0.227 | 0.208 | -1.04
16 | GAGCCUUAAAGGAUGAGGUA [hsa-mir-4280] | 0.0602 | 0.362 | 0.063 | 0.54 | -0.485
17 | GAGCUCAGGAGCUC [hsa-mir-8052] | -0.634 | -0.9 | -0.529 | -0.448 | 0.271
18 | GAGCUGGAAGGAGUGGGCCUGGCUC [hsa-mir-6847] | 0.4 | 0.634 | 0.387 | 1.45 | 4.26
19 | GAGCUGGGUGGGGUGCCAAGCCU [hsa-mir-6819] | 2.3 | 2.43 | 1.71 | 2.06 | 1.38

Row | Sequence | pull-down binding Z-score [1] | pull-down binding Z-score (TO-N3 (biotin conjugate)) | pull-down binding Z-score [2] | pull-down binding Z-score [3] | pull-down binding Z-score [4]
20 | GAGCUUCGUGUACAUUAUCUAUUAGAAAAUGAAGUAC [hsa-mir-4724] | 0.0277 | 0.0579 | -0.033 | 0.0115 | -0.219
21 | GAGGAUGCAGGAGAGGAAGGGGGCUUCUUUUUGACGCCUACUUCAUCAGCUGCUCCUC [hsa-mir-4330] | 2.31 | 2.26 | 2.41 | 1.56 | 0.824
22 | GAGGCCAGAGGUGCCC [hsa-mir-4292] | -0.0325 | 0.295 | 0.122 | 1.3 | 0.687
23 | GAGGCCUCUUGCCAUGGCCUCC [hsa-mir-7113] | -0.486 | -0.406 | -0.378 | 0.766 | -1.1
24 | GAGGGAUGAGUGCACUUCACCUGC [hsa-mir-4435-1_4435-2] | -0.191 | 0.375 | 0.0965 | 0.859 | 0.0709
25 | GAGGGGCAUGCACUGUGUUCACCCUG [hsa-mir-134] | 0.47 | 0.687 | -0.0434 | 0.807 | -0.276
26 | GAGGGGCUUACUGCCCUGUGGGGCUCUCUGGACCCAGUGCCAUGCUUCUC [hsa-mir-6728] | -0.224 | 0.295 | -0.363 | 1.23 | 0.541
27 | GAGGUCUUCCCAUGCUAAGAAGUCCUC [hsa-mir-2116] | 1.51 | 1.19 | 0.115 | -0.154 | -0.641
28 | GAGGUGGGAAGGCUGCCCCAAAUGGCCUCUAACAUCCCUUCCAGUCUCCUCCUC [hsa-mir-6127] | -0.0543 | 0.194 | 0.23 | 0.919 | -0.236
29 | GAGGUUGCAGUGAGCCAAGAUCGUG [hsa-mir-4459] | -0.147 | 0.743 | 0.278 | 1.33 | 2.18
30 | GAGUACCUUCCAACACGAGCUCUC [hsa-mir-3664] | -0.183 | 0.318 | -0.173 | 1.06 | -1.16
31 | GAGUAUUUUAAUACUGGCAUACUC [hsa-mir-1263] | -0.584 | -0.837 | 0.095 | -0.98 | -0.0468
32 | GAGUCAGAAAAACUAC [hsa-mir-601] | 0.125 | 0.484 | -0.0131 | 0.271 | -1.28
33 | GAGUCCUAUUUAUUUUUAGGAUAUUAGGAA [hsa-mir-5692c-2] | -0.421 | -0.394 | -0.148 | -0.62 | -0.397
34 | GAGUGAAUC [hsa-mir-3610] | -0.31 | -0.454 | -0.35 | -0.552 | -0.304
35 | GAGUGAGGCCCAGUGGUCACCGCCGCCCUC [hsa-mir-4754] | 0.828 | 1.11 | 0.3 | 1.73 | -0.652
36 | GAGUGGUCGGGUCGACUGAACC [hsa-mir-4726] | 0.829 | 1.23 | 0.454 | 1.34 | -0.197
37 | GAGUGUAAUUACGUACAUGCAGUAGCUC [hsa-mir-618] | 0.405 | 0.341 | 0.182 | 0.152 | 0.413
